Laboratory results from patent US11466066B2, “Variants of human BMP7 protein” (ELI LILLY AND COMPANY, priority 2017, dated 2022).
Positions count from the first letter of the chain named. In names and notes the source's numbering stands.

B1: Human mature BMP7 protein variant F9 (SEQ ID NO: 8): homodimer wherein each monomeric subunit has SEQ ID NO: 8 (Y65G/I86L/F93V/N110G/Y128W), disulfide linked (protein)
chain: STGSKQRSQNRSKTPKNQEALRMANVAENSSSDQRQACKKHELYVSFRDLGWQDWIIAPEGYAAGYCEGECAFPLNSYMNATNHALVQTLVHVINPETVPKPCCAPTQLGAISVLYFDDSSNVILKKWRNMVVRACGCH
modifications: homodimer, disulfide linked
B2: Wild type human mature BMP7 (SEQ ID NO: 2): dimer of two glycosylated, 139 amino acid disulfide-linked proteins of about 35 kDa, SEQ ID NO: 2 (protein, listed as Homo sapiens)
chain: B1 chain with G65Y, L86I, V93F, G110N, W128Y
modifications: disulfide-linked glycosylated homodimer

Columns and labels:
[1] = Thermal unfolding assay (circular dichroism); assay type: physicochemical; conditions: CD at 208 nm; 10 mM citrate, 300 mM NaCl, pH 7.4
Protocol: The effect of temperature on the conformational stability of human BMP7 protein variants may be followed by circular dichroism (CD) on a Jasco J-810 instrument equipped with a thermoelectric sample compartment. Briefly stated, 0.2-1.0 mg/mL pro-BMP7 may be formulated in storage buffer (10 mM citrate, 300 mM NaCl, pH 7.4) and loaded into a 0.02 cm path-length CD cuvette. The sample may be heated from 20 to 80° C. at a linear rate of 1° C./minute and the resulting CD signal at 208 nm may be recorded every 0.2° C. using a 1 second signal response time. A non-linear fit to equation 1 may be performed by the program JMP (SAS Institute Inc, Cary, N.C.) to obtain the thermal unfolding mid-point (Tm).
[formula] where, Yu and Yf are fit and represent the Y-intercept of the pre- and post-transition baselines, respectively. Mu and Mf are fit and represent the slope of the pre- and post-transition baselines, respectively. Hm and S are fit and represent enthalpy and entropy, respectively. T is the measured temperature in Kelvin units.

[2] = test system: female CB17SC-M SCID mice; experiment: Ectopic bone formation model; assay type: in vivo; conditions: 3 μg/100 μl subcutaneous; CT scan on Day 13
Protocol: Ectopic bone formation (EBF) may be measured in female CB17SC-M SCID mice upon subcutaneous administration of certain human BMP7 protein variants of the present invention compared to wild type human mature BMP7.
Briefly described, the mice may be anesthetized with 3% isoflurane and are injected with 3 μg/100 μl of the human BMP7 protein variant, wild type human mature BMP7 protein or a vehicle control on the back left flank. The back right flank of each mouse may serve as a control (no injection). Vehicle (pH 4.5): 0.5% Sucrose, 2.5% Glycine, 5 mM L-Glutamic Acid, 5 mM NaCl, 0.01% polysorbate 80, and, 0.1% BSA.
EBF may be measured by a CT scan on Day 13 after injection of the human BMP7 protein variant or wild type human mature BMP7 protein.

[3] = test system: MFc7 mouse renal myofibroblasts; experiment: MFc7 bioassay; assay type: cell-based; conditions: EC50 of wild type BMP7 protein/EC50 of the variant; multiple amino acid changes (Table 3)
Protocol: MFc7 mouse renal myofibroblasts (mouse kidney fibroblast cell line) may be maintained under routine cell culture conditions in OPTI-MEM/10% FBS medium. The cells may be plated in 10 cm tissue culture plates at a seeding density of 500,000 cells/plate. After approximately 48 hours, the cells may be washed with phosphate buffered saline (PBS) prior to the addition of OPTI-MEM/2% dialyzed fetal bovine serum (FBS) medium containing 1 μg/ml BMP7 protein or 1 μg/ml of a BMP7 protein variant and incubated for 48 hours. After treatment the cells may be rinsed with PBS and stored at −80° C. for 20 minutes. After thawing the cells at 37° C. for 30 minutes 100 μl of para-nitrophenyl phosphate (PNPP) may be added. The plate may be incubated at 37° C. for 1 hour. The absorbance at 405 nm may be read utilizing a plate reader. The average relative potency (EC50 of wild type BMP7 protein/EC50 of the BMP7 protein variant) of certain human BMP7 protein variants of the present invention may be calculated based on such readings.

RAR alpha = RAR alpha protein expression, Western Blot; assay type: cell-based, mouse; conditions: MFc7 and 3T3-L1 cell lines; 1 μg/mL, 48 hours; Western Blot intensity
Protocol: (§1) 3T3-L1 fibroblasts and MFc7 mouse renal myofibroblasts may be maintained under routine cell culture conditions in DMEM/10% calf serum medium or OPTI-MEM/10% FBS medium, respectively. The cells may be plated in 10 cm tissue culture plates at a seeding density of 500,000 cells/plate. After 48 hours, the cells may be washed with PBS prior to the addition of either DMEM/2% dialyzed FBS or OPTI-MEM/2% dialyzed FBS medium containing 1 μg/mL human BMP7 protein or 1 μg/mL of a human BMP7 protein variant. The cells may be incubated for 48 hours and then rinsed with ice-cold PBS, and then lysed with Protein Extraction Reagent. Then lysates may be centrifuged at 14,000×g for 15 minutes. A Bradford protein assay may be performed to determine the protein concentration of each lysate. Equivalent amounts of protein (for example, 25 μg) may be resolved by SDS-PAGE and then transferred to nitrocellulose membranes for Western Blot analysis. The membranes may be probed with an anti-RAR alpha antibody and/or an anti-RAR gamma antibody.

DLD1 C5 tumor xenografts = experiment: DLD1 C5 mouse xenograft tumor model; assay type: in vivo; conditions: F9 IP 0.04 mg/kg MWF for 3 weeks followed by 3 weeks irinotecan 20 mg/kg M and Th
Protocol: Female athymic nude mice age 6- to 7-weeks old are available commercially, including from Harlan Laboratories (Indianapolis, Ind.). The mice are allowed to acclimate for one week and fed ad libitum on a normal low fat (4.5%) diet, which may be continued for the duration of the study. Tumor cells are available for purchase from ATCC and may be cultured in cell culture media such as RPMI 1640 (Life Technologies) with L-glutamine, 25 mM HEPES supplemented with 10% FBS and 1 mM Na Pyruvate. Cells may be detached, washed with serum free medium and then resuspended at a final concentration of 50×10^6 cells/mL in serum free RPMI 1640. Tumor cells, approximately 5×106 may be injected subcutaneously in the rear flank of subject mice in a 1:1 mixture of serum free growth medium and Matrigel (Becton Dickinson, Bedford, Mass.). Tumor and body weight measurements may be performed twice weekly. Prior to treatment, mice can be randomized based on tumor size using a randomization algorithm. Treatments may be started when the average tumor volume reaches 100 mm3. […]
All test or control proteins are prepared in phosphate Buffered Saline (PBS) prior to dose. Tumor size may be determined by caliper measurements. […] Log volume data can be analyzed with two-way repeated measures ANOVA by time and treatment using SAS PROC MIXED software (SAS Institutes Inc, Cary, N.C.). […]

RAR gamma = RAR gamma protein expression, Western Blot; assay type: cell-based, mouse; conditions: MFc7 and 3T3-L1 cell lines; 1 μg/mL, 48 hours; Western Blot intensity
Protocol: as §1

Row | Molecule | thermal unfolding mid-point (Tm) [1] [°C] | Ectopic Bone Formation Volume [2] [mm^3] | Average Relative Potency [3] | RAR alpha protein expression (RAR alpha) | tumor response (DLD1 C5 tumor xenografts) | RAR gamma protein expression (RAR gamma)
1 | Wild type human pro-BMP7: homodimers of wild type human mature BMP7 in a non-covalent complex with wild type human pro-domain [reference compound] | 61 | – | – | – | – | –
2 | B1 | – | 7 | 69 | stimulated | tumor regression | stimulated
3 | B2 | – | 78 | – | – | – | –
